B1: IQ motif and ubiquitin-like domain-containing protein (Homo sapiens), Q8NA54 (parent)
chain: MSNQQEKYEAQNIVNSTEESDDAFDTVTIPVPSEEPQESDQTEEHESGIEQFSESHAIHVEEQSDQSFSSLEPDNEQLMEEVISPRQVSYTPQHHEKQYAMQRPNDDSLAFLDKIKSVKESLQESVEDSLATVKVVLIPVGQEIVIPFKVDTILKYLKDHFSHLLGIPHSVLQIRYSGKILKNNETLVQHGVKPQEIVQVEIFSTNPDLYPVRRIDGLTDVSQIITVTVQTGLDQYQQVPVEIVKSDFHKPFLGGFRHKVTGVEYHNAGTQTVPKRIPERLSIFCRDTQTVFQKKNLQQTTNTTSTQMTNIGVYVSNMTDKLVTPGKYFSAAEYHAQRLKAVIVIQTYYRQWHAKIFVENLRRQKSLRLEWETQQELRKIREKEEWIKLDYHRRHNPKTNEDFEFLYNALEFWRQEELTRINQSFTGAERKAALCELLEKETQIIASIGRHRYIAYMANQEAAIQAFLDKCSAPKIWRTPNGKTIEMDTQFTIRARELQNIYKCIMLKNISQDERLDVLLTLKHTVKEHECKLTQEILELIDREVDLMMRGVKHHNLEGLRKRIATLFFHYIKTPLFNPEVAKYLKVPQDPLKFYKKIYFCHSCQLYLPSTEFSVSSTSRRIYRCRNCINLQNEAQKRESFLKYKCLLQQLYYTEADYEDDSKIAFLMQLQDIQYLTENIWASQSVLSACDNLSDLVMVRWNKSLEWSPWNCILLTKDEAAAHLKLTSIEEGYERSFIHKIKHKHILAKNYFSQVPVLASFILDDGEIDEIRWKYHSDTTPKIIESQRPPH
partner: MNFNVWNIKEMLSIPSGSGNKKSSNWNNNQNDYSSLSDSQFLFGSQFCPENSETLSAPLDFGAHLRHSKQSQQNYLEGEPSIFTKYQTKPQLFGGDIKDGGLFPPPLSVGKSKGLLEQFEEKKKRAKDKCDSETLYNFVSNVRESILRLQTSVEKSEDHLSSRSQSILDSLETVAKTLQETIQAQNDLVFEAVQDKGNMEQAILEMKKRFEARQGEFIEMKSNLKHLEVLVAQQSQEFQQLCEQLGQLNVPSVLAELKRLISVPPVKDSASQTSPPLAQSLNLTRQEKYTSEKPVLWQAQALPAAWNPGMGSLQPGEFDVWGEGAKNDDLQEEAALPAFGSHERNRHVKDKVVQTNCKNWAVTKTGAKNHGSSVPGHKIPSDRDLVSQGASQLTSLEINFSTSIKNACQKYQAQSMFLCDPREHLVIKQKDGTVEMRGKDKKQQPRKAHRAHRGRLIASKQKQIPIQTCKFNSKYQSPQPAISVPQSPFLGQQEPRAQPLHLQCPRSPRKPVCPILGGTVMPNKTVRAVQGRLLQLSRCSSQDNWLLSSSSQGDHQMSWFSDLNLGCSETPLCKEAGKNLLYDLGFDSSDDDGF
B2: Notch homolog 2 N-terminal-like protein A (Homo sapiens), Q7Z3S9 (parent)
chain: MCVTYHNGTGYCKCPEGFLGEYCQHRDPCEKNRCQNGGTCVAQAMLGKATCRCASGFTGEDCQYSTSHPCFVSRPCLNGGTCHMLSRDTYECTCQVGFTGKECQWTDACLSHPCANGSTCTTVANQFSCKCLTGFTGQKCETDVNECDIPGHCQHGGTCLNLPGSYQCQCLQGFTGQYCDSLYVPCAPSPCVNGGTCRQTGDFTFECNCLPETVRRGTELWERDREVWNGKEHDEN
partner: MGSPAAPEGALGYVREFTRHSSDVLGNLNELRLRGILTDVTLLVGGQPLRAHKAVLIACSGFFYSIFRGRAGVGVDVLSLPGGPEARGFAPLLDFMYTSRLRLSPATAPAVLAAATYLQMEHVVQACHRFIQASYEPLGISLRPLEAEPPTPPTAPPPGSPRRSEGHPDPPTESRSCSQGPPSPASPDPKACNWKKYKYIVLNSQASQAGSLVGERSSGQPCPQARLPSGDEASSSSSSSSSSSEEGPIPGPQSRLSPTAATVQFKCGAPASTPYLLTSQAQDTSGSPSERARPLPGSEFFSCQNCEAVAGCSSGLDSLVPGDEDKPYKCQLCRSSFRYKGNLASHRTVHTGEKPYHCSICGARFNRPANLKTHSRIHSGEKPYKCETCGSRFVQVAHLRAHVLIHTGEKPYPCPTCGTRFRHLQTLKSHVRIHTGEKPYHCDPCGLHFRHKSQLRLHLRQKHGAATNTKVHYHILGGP
B3: Keratin-associated protein 3-2 (Homo sapiens), Q9BYR7 (parent)
chain: MDCCASRSCSVPTGPATTICSSDKSCRCGVCLPSTCPHTVWLLEPICCDNCPPPCHIPQPCVPTCFLLNSCQPTPGLETLNLTTFTQPCCEPCLPRGC
partner: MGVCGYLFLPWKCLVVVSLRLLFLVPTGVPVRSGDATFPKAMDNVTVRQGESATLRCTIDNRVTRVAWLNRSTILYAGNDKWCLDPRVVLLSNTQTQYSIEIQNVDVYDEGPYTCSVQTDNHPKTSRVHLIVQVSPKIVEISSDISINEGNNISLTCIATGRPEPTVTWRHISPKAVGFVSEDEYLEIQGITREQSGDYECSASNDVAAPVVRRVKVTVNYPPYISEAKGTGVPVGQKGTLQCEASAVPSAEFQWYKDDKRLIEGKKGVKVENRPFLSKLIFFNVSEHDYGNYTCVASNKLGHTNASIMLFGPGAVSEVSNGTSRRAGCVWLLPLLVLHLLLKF
B4: Cyclin-D1-binding protein 1 (Homo sapiens), O95273 (parent)
chain: MASATAPAAAVPTLASPLEQLRHLAEELRLLLPRVRVGEAQETTEEFNREMFWRRLNEAAVTVSREATTLTIVFSQLPLPSPQETQKFCEQVHAAIKAFIAVYYLLPKDQGITLRKLVRGATLDIVDGMAQLMEVLSVTPTQSPENNDLISYNSVWVACQQMPQIPRDNKAAALLMLTKNVDFVKDAHEEMEQAVEECDPYSGLLNDTEENNSDNHNHEDDVLGFPSNQDLYWSEDDQELIIPCLALVRASKACLKKIRMLVAENGKKDQVAQLDDIVDISDEISPSVDDLALSIYPPMCHLTVRINSAKLVSVLKKALEITKASHVTPQPEDSWIPLLINAIDHCMNRIKELTQSELEL
partner: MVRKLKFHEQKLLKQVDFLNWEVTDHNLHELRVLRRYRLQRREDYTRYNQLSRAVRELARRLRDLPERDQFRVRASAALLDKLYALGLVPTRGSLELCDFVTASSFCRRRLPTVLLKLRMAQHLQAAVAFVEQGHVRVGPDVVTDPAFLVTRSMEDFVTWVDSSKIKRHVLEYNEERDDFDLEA
B5: Prelamin-A/C (Homo sapiens), P02545 (parent)
chain: METPSQRRATRSGAQASSTPLSPTRITRLQEKEDLQELNDRLAVYIDRVRSLETENAGLRLRITESEEVVSREVSGIKAAYEAELGDARKTLDSVAKERARLQLELSKVREEFKELKARNTKKEGDLIAAQARLKDLEALLNSKEAALSTALSEKRTLEGELHDLRGQVAKLEAALGEAKKQLQDEMLRRVDAENRLQTMKEELDFQKNIYSEELRETKRRHETRLVEIDNGKQREFESRLADALQELRAQHEDQVEQYKKELEKTYSAKLDNARQSAERNSNLVGAAHEELQQSRIRIDSLSAQLSQLQKQLAAKEAKLRDLEDSLARERDTSRRLLAEKEREMAEMRARMQQQLDEYQELLDIKLALDMEIHAYRKLLEGEEERLRLSPSPTSQRSRGRASSHSSQTQGGGSVTKKRKLESTESRSSFSQHARTSGRVAVEEVDEEGKFVRLRNKSNEDQSMGNWQIKRQNGDDPLLTYRFPPKFTLKAGQVVTIWAAGAGATHSPPTDLVWKAQNTWGCGNSLRTALINSTGEEVAMRKLVRSVTVVEDDEDEDGDDLLHHHHGSHCSSSGDPAEYNLRSRTVLCGTCGQPADKASASGSGAQVGGPISSGSSASSVTVTRSYRSVGGSGGGSFGDNLVTRSYLLGNSSPRTQSPQNCSIM
partner: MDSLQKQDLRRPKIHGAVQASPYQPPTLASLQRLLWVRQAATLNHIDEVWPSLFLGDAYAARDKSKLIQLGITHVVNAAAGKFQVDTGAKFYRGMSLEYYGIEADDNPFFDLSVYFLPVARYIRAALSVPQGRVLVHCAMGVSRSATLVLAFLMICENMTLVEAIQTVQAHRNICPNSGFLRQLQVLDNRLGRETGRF
B6: Tuftelin-interacting protein 11 (Homo sapiens), Q9UBB9 (parent)
chain: MSLSHLYRDGEGRIDDDDDERENFEITDWDLQNEFNPNRQRHWQTKEEATYGVWAERDSDDERPSFGGKRARDYSAPVNFISAGLKKGAAEEAELEDSDDEEKPVKQDDFPKDFGPRKLKTGGNFKPSQKGFAGGTKSFMDFGSWERHTKGIGQKLLQKMGYVPGRGLGKNAQGIINPIEAKQRKGKGAVGAYGSERTTQSMQDFPVVDSEEEAEEEFQKELSQWRKDPSGSKKKPKYSYKTVEELKAKGRISKKLTAPQKELSQVKVIDMTGREQKVYYSYSQISHKHNVPDDGLPLQSQQLPQSGKEAKAPGFALPELEHNLQLLIDLTEQEIIQNDRQLQYERDMVVNLFHELEKMTEVLDHEERVISNLSKVLEMVEECERRMQPDCSNPLTLDECARIFETLQDKYYEEYRMSDRVDLAVAIVYPLMKEYFKEWDPLKDCTYGTEIISKWKSLLENDQLLSHGGQDLSADAFHRLIWEVWMPFVRNIVTQWQPRNCDPMVDFLDSWVHIIPVWILDNILDQLIFPKLQKEVENWNPLTDTVPIHSWIHPWLPLMQARLEPLYSPIRSKLSSALQKWHPSDSSAKLILQPWKDVFTPGSWEAFMVKNIVPKLGMCLGELVINPHQQHMDAFYWVIDWEGMISVSSLVGLLEKHFFPKWLQVLCSWLSNSPNYEEITKWYLGWKSMFSDQVLAHPSVKDKFNEALDIMNRAVSSNVGAYMQPGARENIAYLTHTERRKDFQYEAMQERREAENMAQRGIGVAASSVPMNFKDLIETKAEEHNIVFMPVIGKRHEGKQLYTFGRIVIYIDRGVVFVQGEKTWVPTSLQSLIDMAK
partner: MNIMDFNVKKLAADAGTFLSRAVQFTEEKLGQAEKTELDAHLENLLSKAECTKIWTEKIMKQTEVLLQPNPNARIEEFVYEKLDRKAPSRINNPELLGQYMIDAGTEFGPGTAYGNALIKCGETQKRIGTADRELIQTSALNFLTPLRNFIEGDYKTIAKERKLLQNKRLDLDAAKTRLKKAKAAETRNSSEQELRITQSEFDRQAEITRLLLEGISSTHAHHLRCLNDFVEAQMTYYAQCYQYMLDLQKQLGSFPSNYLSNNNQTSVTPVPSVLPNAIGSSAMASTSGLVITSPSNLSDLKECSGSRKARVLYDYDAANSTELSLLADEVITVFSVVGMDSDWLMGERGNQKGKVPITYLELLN
B7: Syntenin-2 (Homo sapiens), Q9H190 (parent)
chain: MSSLYPSLEDLKVDQAIQAQVRASPKMPALPVQATAISPPPVLYPNLAELENYMGLSLSSQEVQESLLQIPEGDSTAVSGPGPGQMVAPVTGYSLGVRRAEIKPGVREIHLCKDERGKTGLRLRKVDQGLFVQLVQANTPASLVGLRFGDQLLQIDGRDCAGWSSHKAHQVVKKASGDKIVVVVRDRPFQRTVTMHKDSMGHVGFVIKKGKIVSLVKGSSAARNGLLTNHYVCEVDGQNVIGLKDKKIMEILATAGNVVTLTIIPSVIYEHMVKKLPPVLLHHTMDHSIPDA
partner: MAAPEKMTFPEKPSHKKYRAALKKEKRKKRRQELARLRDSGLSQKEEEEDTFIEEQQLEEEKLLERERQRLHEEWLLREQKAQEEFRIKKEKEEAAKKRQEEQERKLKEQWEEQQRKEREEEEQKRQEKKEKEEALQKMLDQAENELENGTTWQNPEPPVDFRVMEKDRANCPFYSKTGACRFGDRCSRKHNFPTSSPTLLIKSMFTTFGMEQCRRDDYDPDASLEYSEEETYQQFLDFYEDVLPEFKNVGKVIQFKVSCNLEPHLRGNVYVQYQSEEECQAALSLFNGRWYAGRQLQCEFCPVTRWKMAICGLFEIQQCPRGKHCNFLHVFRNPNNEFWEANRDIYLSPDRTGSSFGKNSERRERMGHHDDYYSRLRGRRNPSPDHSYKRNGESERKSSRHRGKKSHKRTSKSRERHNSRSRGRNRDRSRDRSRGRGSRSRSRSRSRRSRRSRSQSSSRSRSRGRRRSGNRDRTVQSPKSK

Variants of: B1
Conditions: with iho1_human IHO1, Q8IYA8

effect of a mutation on the interaction | Variant
disrupting interaction strength | I501F
with no effect | V126M

Variants of: B2
Conditions: with bcl6b_human BCL6B

effect of a mutation on the interaction | Variant
with no effect | R74Q
with no effect | A115T

Variants of: B3
Conditions: with ntri_human NTM

effect of a mutation on the interaction | Variant
with no effect | S8G
with no effect | R27C

Variants of: B4
Conditions: with imp3_human IMP3, Q9NV31

effect of a mutation on the interaction | Variant
disrupting interaction strength | I277T

Variants of: B5
Conditions: with ds13b_human DUSP13B

effect of a mutation on the interaction | Variant
with no effect | I299V

Variants of: B6
Conditions: with shlb1_human SH3GLB1, Q9Y371

effect of a mutation on the interaction | Variant
with no effect | S688L
with no effect | R8Q

Variants of: B7
Conditions: with ZRSR2, Q15696

effect of a mutation on the interaction | Variant
disrupting interaction strength | G225R

From IntAct's records for PubMed 31515488
